In paper PMC5496502 (Chemical Science, 2015):

Molecular target: MET-Fc: extracellular MET domain fused with human IgG1-Fc (human, UniProt P08581 25-932)
Assay: AlphaScreen or HTRF

Chain of MET-Fc: extracellular MET domain fused with human IgG1-Fc (P08581 25-932): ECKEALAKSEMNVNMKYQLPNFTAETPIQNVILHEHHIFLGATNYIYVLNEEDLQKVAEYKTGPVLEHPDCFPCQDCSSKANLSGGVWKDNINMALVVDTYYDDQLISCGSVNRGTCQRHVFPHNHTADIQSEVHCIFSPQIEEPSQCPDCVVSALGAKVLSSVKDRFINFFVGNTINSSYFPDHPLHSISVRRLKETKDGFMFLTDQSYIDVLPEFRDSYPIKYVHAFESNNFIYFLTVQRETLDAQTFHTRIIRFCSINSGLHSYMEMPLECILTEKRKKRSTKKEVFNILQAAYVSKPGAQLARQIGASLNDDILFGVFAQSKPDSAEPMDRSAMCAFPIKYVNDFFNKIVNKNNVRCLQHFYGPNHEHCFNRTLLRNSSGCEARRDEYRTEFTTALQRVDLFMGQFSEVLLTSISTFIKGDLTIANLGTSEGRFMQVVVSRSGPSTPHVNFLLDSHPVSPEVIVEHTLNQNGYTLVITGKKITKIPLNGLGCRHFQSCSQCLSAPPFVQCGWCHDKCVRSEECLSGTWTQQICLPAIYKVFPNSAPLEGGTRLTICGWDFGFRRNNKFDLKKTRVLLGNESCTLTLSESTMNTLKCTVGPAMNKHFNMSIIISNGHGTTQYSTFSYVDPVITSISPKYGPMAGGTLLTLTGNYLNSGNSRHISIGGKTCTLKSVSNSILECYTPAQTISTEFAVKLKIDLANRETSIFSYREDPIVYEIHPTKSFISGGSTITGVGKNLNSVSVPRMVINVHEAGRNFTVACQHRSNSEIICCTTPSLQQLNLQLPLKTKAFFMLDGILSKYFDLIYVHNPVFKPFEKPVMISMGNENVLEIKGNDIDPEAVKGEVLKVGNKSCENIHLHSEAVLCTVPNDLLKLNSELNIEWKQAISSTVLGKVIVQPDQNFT

B1: K1B: synthetic K1 domain of HGF/SF (residues 125-209) with C-terminal Gly-Gly-Lys(biotin) (domain or fragment)
chain: IRNCIIGKGRSYKGTVSITKSGIKCQPWSSMIPHEHSFLPSSYRGKDLQENYCRNPRGEEGGPWCFTSNPEVRYEVCDIPQCSEVGGK
modifications: biotin on the side chain of the added C-terminal lysine; three disulfide bonds
  Kd: ~16 nM
